Source: patent US20210061896A1 (SHANGHAI YILE BIOTECHNOLOGY, published 2021)
Ends that are not written are not given here.

T1: biotinylated VP peptide fragment (human, also: biotinylated (position not given here))
T1 construct: Synthesized in vitro; 12 amino acids
T1 peptide: VMLSSQVPLEPP

T2: biotinylated LL peptide fragment (human, also: biotinylated (position not given here))
T2 construct: Synthesized in vitro; 12 amino acids
T2 peptide: LLFLLEEYKNYL

T3: human proBDNF precursor protein (human, UniProt P23560 19-247)
T3 construct: also called human proBDNF precursor recombinant protein
T3 sequence (looked up): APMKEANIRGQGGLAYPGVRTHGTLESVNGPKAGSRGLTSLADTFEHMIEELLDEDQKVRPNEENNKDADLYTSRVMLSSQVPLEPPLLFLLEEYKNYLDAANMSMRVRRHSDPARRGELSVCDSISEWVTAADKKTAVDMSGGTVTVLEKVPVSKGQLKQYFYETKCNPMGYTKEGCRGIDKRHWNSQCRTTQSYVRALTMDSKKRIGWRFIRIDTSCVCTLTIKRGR

T4: GST-huBDNFpro E1
T4 construct: also called GST-huBDNFpro-E1 peptide fragment; GST fusion partner and any linker between GST and the peptide not given
T4 chain: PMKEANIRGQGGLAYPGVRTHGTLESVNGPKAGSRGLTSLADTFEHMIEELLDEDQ

T5: GST-huBDNFpro E4
T5 construct: also called GST-huBDNFpro-E4 peptide fragment; GST fusion partner and any linker between GST and the peptide not given
T5 chain: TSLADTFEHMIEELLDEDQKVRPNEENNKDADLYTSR

T6: GST-huBDNFpro-E5 peptide fragment (human)
T6 construct: the text speaks of 36 amino acids; also called polypeptide E5; not shown: Glutathione S-transferase (GST) fusion partner
T6 chain: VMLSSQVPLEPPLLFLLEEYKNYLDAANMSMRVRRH

T7: full length GST-huBDNFpro (human, UniProt P23560 20-129)
T7 construct: GST is placed at the N-terminus by the printed name only; not shown: Glutathione S-transferase (GST) fusion partner
T7 chain: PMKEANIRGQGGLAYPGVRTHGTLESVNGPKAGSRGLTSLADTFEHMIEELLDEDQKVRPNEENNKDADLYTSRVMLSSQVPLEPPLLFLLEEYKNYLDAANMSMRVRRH

T8: GST-huBDNFpro-E2 peptide fragment (human, UniProt O18755 76-129 (Procyon lotor entry))
T8 construct: also called polypeptide E2; not shown: Glutathione S-transferase (GST) fusion partner
T8 sequence: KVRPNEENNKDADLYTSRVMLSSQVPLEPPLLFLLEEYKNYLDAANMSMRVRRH

T9: biotinylated DH peptide fragment (human, also: biotinylated (position not given here))
T9 construct: Synthesized in vitro; 12 amino acids; also called polypeptide DH
T9 peptide: DAANMSMRVRRH

B1: 2H8 monoclonal antibody (antibody, human IgG4, kappa, V domains shown)
VH: EVQLVETGGGLVQPGGSLRLSCAASGFTFSSYGMHWVRQAPGKGLEWVSVISGSGDSTYYAESVKGRFTISRDNARNTVYLQMNSLRAEDTAVYYCASGILTGYVFDYWGKGTMVTVSS
VL: DVVMTQSPLSLPVTLGQPASISCRSSQSLVSNDGNTYLNWFQQRPGQPPRRLIYMVSKWDSGVPDRFSGSGSGTDFTLRISRVEAEDVGVYYCMQSTHWPPTFGGGTKLEIKR
notes: also called recombinant monoclonal antibody 2H8 (human IgG1 type)
B2: 1D3 monoclonal antibody (antibody, human IgG4, kappa, V domains shown)
VH: QVQLVESGGGLIQPGGSMRLSCAASGFSLSGYDMHWVRQIAGKGLEWVAGLGMEGDSYYSASVKGRFTISRQDAKNSLYLEMKDLGGGDTAVYYCLRDVHGFDVWGQGTTVTVSS
VL: DVVMTQSPLSLPVTPGEPASISCRSSQSLLYSNGYTYLDWYLQRPGQSPQLLIYMGSNRASGVPDRFSGSGSGTDFTLKISRVEAEDVGVYYCMQALQTPLTFGGGTKLEIKR
notes: also called recombinant monoclonal antibody 1D3 (human IgG1 type); Ab-proBDNF (1D3)
B3: single-chain antibody 1D3 (scFv)
scFv: QVQLVESGGGLIQPGGSMRLSCAASGFSLSGYDMHWVRQIAGKGLEWVAGLGMEGDSYYSASVKGRFTISRQDAKNSLYLEMKDLGGGDTAVYYCLRDVHGFDVWGQGTTVTVSSGGGGSGGGGSGGGGSDVVMTQSPLSLPVTPGEPASISCRSSQSLLYSNGYTYLDWYLQRPGQSPQLLIYMGSNRASGVPDRFSGSGSGTDFTLKISRVEAEDVGVYYCMQALQTPLTFGGGTKLEIKR
notes: also called 1D3, scFv; pCantab-1D3
B4: single-chain antibody 2H8 (scFv)
scFv: EVQLVETGGGLVQPGGSLRLSCAASGFTFSSYGMHWVRQAPGKGLEWVSVISGSGDSTYYAESVKGRFTISRDNARNTVYLQMNSLRAEDTAVYYCASGILTGYVFDYWGKGTMVTVSSGGGGSGGGGSGGGGSDVVMTQSPLSLPVTLGQPASISCRSSQSLVSNDGNTYLNWFQQRPGQPPRRLIYMVSKWDSGVPDRFSGSGSGTDFTLRISRVEAEDVGVYYCMQSTHWPPTFGGGTKLEIKR
notes: probably a print error; also called 2H8, scFv; pCantab-2H8

Experiments:
[1] = target: T1, biotinylated VP peptide fragment; experiment: ELISA on biotinylated peptide
[2] = target: T2, biotinylated LL peptide fragment; experiment: ELISA on biotinylated peptide
[3] = target: T3, human proBDNF precursor protein; experiment: SPR, Biacore T200, capture method, antigen 0.25-8 nM
Procedure: The affinity and kinetic parameters of the 1D3 and 2H8 monoclonal antibodies were measured by the capture method using Biacore T200 system (purchased from GE), respectively. The system was manipulated according to the instructions, human proBDNF precursor protein was used at a concentration of 0.25 nM, 0.5 nM, 1 nM, 2 nM, 4 nM, and 8 nM, respectively. The Biacore T200 evaluation software was used to evaluate the resulting action curve and calculate the affinity KD value.

GST-huBDNFpro E1 [4] = target: T4, GST-huBDNFpro E1; experiment: ELISA on GST fusion proteins (Example 7), single condition
GST-huBDNFpro E4 [5] = target: T5, GST-huBDNFpro E4; experiment: as above
GST-huBDNFpro E1 [6] = target: T4, GST-huBDNFpro E1; experiment: ELISA on GST fusion proteins (Example 7), single condition, concentrations not given
GST-huBDNFpro E3 = target: T10, GST-huBDNFpro E3; experiment: as above
T10 construct: fusion tag; also called GST-huBDNFpro-E3 peptide fragment

GST-huBDNFpro E4 [7] = target: T5, GST-huBDNFpro E4; experiment: as above
GST-GPC3 = target: T11, GST-GPC3; experiment: as above
T11 construct: fusion tag; It appears to be the negative control antigen

[8] = target: T6, GST-huBDNFpro-E5 peptide fragment; experiment: as above
[9] = target: T7, full length GST-huBDNFpro; experiment: as above
[10] = target: T8, GST-huBDNFpro-E2 peptide fragment; experiment: as above
[11] = target: T1, biotinylated VP peptide fragment; experiment: ELISA on biotinylated synthetic peptides (Example 8), single condition, concentrations not given
[12] = target: T2, biotinylated LL peptide fragment; experiment: as above
[13] = target: T9, biotinylated DH peptide fragment; experiment: as above
BSA = target: T12, BSA (UniProt P02769 25-607); experiment: single-phage ELISA
T12 construct: also called negative control protein BSA
Procedure: Ninety-six clones were randomly selected from the fourth round of screening, and single-phage ELISA (enzyme-linked immunosorbent assay) was used to analyze their binding ability to human proBDNF precursors. For this purpose, each single colony was inoculated into 300 μl of 2×YT/ampicillin medium (containing 2% glucose) in a 96-well deep-well culture plate, shaken and cultured at 37° C. and 250 rpm for 16 hours. 20 μl of the culture was inoculated into 500 μl of 2×YT/ampicillin medium (containing 0.1% glucose), and shaken and cultured at 37° C. and 250 rpm for 1.5 hours. For preparing helper phage solution, 75 μl of M13KO7 (titer: 3×10¹² pfu/ml) was taken and mixed into 15 ml of 2×YT medium, added to the culture plate at 50 μl/well, and incubate at 37° C. and 150 rpm for 30 minutes. And then, the prepared kanamycin solution was added at 50 μl/well (180 μl of 50 mg/ml kanamycin was taken and added to 15 ml 2×YT medium), and shaken and cultured at 37° C. and 250 rpm for 16 hours. […]
To perform a single phage ELISA, a 96-well MediSorp ELISA plate (purchased from Nunc) was coated with 100 ng/well antigen human proBDNF precursor and negative control protein BSA (100 μl/well) respectively, overnight at 4° C. […] The extinction value was measured at 450 nm using an enzyme-linked immunoassay device (Bio-Rad).

T12 sequence (P02769 25-607 limits assumed): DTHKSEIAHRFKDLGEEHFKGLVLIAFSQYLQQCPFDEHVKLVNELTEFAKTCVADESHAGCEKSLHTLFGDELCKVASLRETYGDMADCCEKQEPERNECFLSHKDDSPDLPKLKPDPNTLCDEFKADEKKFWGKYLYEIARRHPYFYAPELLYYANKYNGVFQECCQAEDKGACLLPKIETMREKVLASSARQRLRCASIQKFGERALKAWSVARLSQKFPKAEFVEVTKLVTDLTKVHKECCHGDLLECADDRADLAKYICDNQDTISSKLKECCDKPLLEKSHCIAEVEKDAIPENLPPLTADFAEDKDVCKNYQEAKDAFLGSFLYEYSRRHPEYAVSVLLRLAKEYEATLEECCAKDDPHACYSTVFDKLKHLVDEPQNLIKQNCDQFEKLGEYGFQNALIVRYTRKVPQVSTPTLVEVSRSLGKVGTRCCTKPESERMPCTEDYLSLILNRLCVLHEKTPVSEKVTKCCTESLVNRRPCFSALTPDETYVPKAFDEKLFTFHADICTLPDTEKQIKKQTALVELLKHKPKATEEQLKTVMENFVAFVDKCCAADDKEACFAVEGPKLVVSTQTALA

Binder	binding result [1]	binding result [2]	Kd [3]	koff [3]	kon [3]	binding result (GST-huBDNFpro E1 [4])	binding result (GST-huBDNFpro E4 [5])	OD450nM (GST-huBDNFpro E1 [6])	OD450nM (GST-huBDNFpro E3)	OD450nM (GST-huBDNFpro E4 [7])	OD450nM (GST-GPC3)	OD450nM [8]	OD450nM [9]	OD450nM [10]	OD450nM [11]	OD450nM [12]	OD450nM [13]	binding result (BSA)
B1	no binding	no binding	1.91 nM	0.00594 s⁻¹	3.1e+06 M⁻¹ s⁻¹	no binding	no binding	0.015	0.0144	0.0089	0.05	1.06	0.758	0.962	0.0104	0.0115	0.831	
B2	no binding	no binding				no binding	no binding	0.0114	0.0245	0.0081	0.0577	0.979	0.625	0.914	0.0122	0.0167	1.7	
B3																		no binding (tested: 100 ng/well coated)
B4																		no binding (tested: 100 ng/well coated)
